Results reported in patent US11833164B2, “Methods of treating Fabry disease in patients having a mutation in the GLA gene” (Amicus Therapeutics, Inc., priority 2019, dated 2023).

System: mutant form of α-Gal A expressed in HEK-293 cells
Experiment: HEK assay (GLP HEK / Migalastat Amenability Assay): α-Gal A activity in lysates of transiently transfected HEK-293 cells incubated with or without 10 μM migalastat
Assay type: cell-based, human
Details: for Absolute increase (% WT): 10 μM migalastat versus baseline; for Relative increase: 10 μM migalastat α-Gal A activity relative to baseline; for 10 μM migalastat α-Gal A activity (% WT): 5 days; for 10 μM migalastat α-Gal A activity (% WT) / Baseline α-Gal A activity (% WT): percentage of baseline wild-type α-Gal A activity; for 10 μM migalastat α-Gal A activity (% WT) / Baseline α-Gal A activity (% WT) / Baseline α-Gal A activity / 10 μM migalastat α-Gal A activity: mean ± SEM; for Baseline α-Gal A activity (% WT): absence of migalastat; for Baseline α-Gal A activity / 10 μM migalastat α-Gal A activity: lysates of HEK-293 cells transfected with the mutant form; for Baseline α-Gal A activity: incubated 5 days in the absence of migalastat; for 10 μM migalastat α-Gal A activity: incubated 5 days with 10 μM migalastat
Procedure: Such mutations or variants are also referred to herein as “HEK assay amenable” mutations or variants.
The α-Gal A activity is expressed as the nmoles of free 4-MU released per milligram of protein per hour (nmol/mg/hr).
In Table 7, values for the mean±standard error of the mean (SEM) were calculated. nmol/mg/hr indicates “nmoles of free 4-MU released per mg of protein per hour”. WT indicates “wild-type”. NC indicates “not calculable”. N/A indicates “not applicable”.

Row | Molecule | Absolute increase (% WT) | Relative increase | 10 μM migalastat α-Gal A activity (% WT) | Baseline α-Gal A activity (% WT) | Baseline α-Gal A activity | 10 μM migalastat α-Gal A activity
1 | R105K (protein) MQLRNPELHLGCALALRFLALVSWDIPGARALDNGLARTPTMGWLHWERFMCNLDCQEEPDSCISEKLFMEMAELMVSEGWKDAGYEYLCIDDCWMAPQRDSEGKLQADPQRFPHGIRQLANYVHSKGLKLGIYADVGNKTCAGFPGSFGYYDIDAQTFADWGVDLLKFDGCYCDSLENLADGYKHMSLALNRTGRSIVYSCEWPLYMWPFQKPNYTEIRQYCNHWRNFADIDDSWKSIKSILDWTSFNQERIVDVAGPGGWNDPDMLVIGNFGLSWNQQVTQMALWAIMAAPLFMSNDLRHISPQAKALLQDKDVIAINQDPLGKQGYQLRQGDNFEVWERPLSGLAWAVAMINRQEIGGPRSYTIAVASLGKGVACNPACFITQLLPVKRKLGFYEWTSRLRSHINPTGTVLLQLENTMQMSLKDLL | 20.5 % WT | 1.2 | 96.7 ± 5.2 % WT | 76.2 ± 2.9 % WT | 25495 ± 1793 nmol/mg/h | 31647 ± 2251 nmol/mg/h
2 | Q107H (protein) MQLRNPELHLGCALALRFLALVSWDIPGARALDNGLARTPTMGWLHWERFMCNLDCQEEPDSCISEKLFMEMAELMVSEGWKDAGYEYLCIDDCWMAPQRDSEGRLHADPQRFPHGIRQLANYVHSKGLKLGIYADVGNKTCAGFPGSFGYYDIDAQTFADWGVDLLKFDGCYCDSLENLADGYKHMSLALNRTGRSIVYSCEWPLYMWPFQKPNYTEIRQYCNHWRNFADIDDSWKSIKSILDWTSFNQERIVDVAGPGGWNDPDMLVIGNFGLSWNQQVTQMALWAIMAAPLFMSNDLRHISPQAKALLQDKDVIAINQDPLGKQGYQLRQGDNFEVWERPLSGLAWAVAMINRQEIGGPRSYTIAVASLGKGVACNPACFITQLLPVKRKLGFYEWTSRLRSHINPTGTVLLQLENTMQMSLKDLL | 9.1 % WT | 1.2 | 50.8 ± 2 % WT | 41.7 ± 1.5 % WT | 12307 ± 487 nmol/mg/h | 14822 ± 384 nmol/mg/h
3 | L106V (protein) MQLRNPELHLGCALALRFLALVSWDIPGARALDNGLARTPTMGWLHWERFMCNLDCQEEPDSCISEKLFMEMAELMVSEGWKDAGYEYLCIDDCWMAPQRDSEGRVQADPQRFPHGIRQLANYVHSKGLKLGIYADVGNKTCAGFPGSFGYYDIDAQTFADWGVDLLKFDGCYCDSLENLADGYKHMSLALNRTGRSIVYSCEWPLYMWPFQKPNYTEIRQYCNHWRNFADIDDSWKSIKSILDWTSFNQERIVDVAGPGGWNDPDMLVIGNFGLSWNQQVTQMALWAIMAAPLFMSNDLRHISPQAKALLQDKDVIAINQDPLGKQGYQLRQGDNFEVWERPLSGLAWAVAMINRQEIGGPRSYTIAVASLGKGVACNPACFITQLLPVKRKLGFYEWTSRLRSHINPTGTVLLQLENTMQMSLKDLL | 19.8 % WT | 1.4 | 73.4 ± 5.9 % WT | 53.6 ± 4.3 % WT | 15393 ± 1288 nmol/mg/h | 20991 ± 1611 nmol/mg/h
4 | Q107E (protein) MQLRNPELHLGCALALRFLALVSWDIPGARALDNGLARTPTMGWLHWERFMCNLDCQEEPDSCISEKLFMEMAELMVSEGWKDAGYEYLCIDDCWMAPQRDSEGRLEADPQRFPHGIRQLANYVHSKGLKLGIYADVGNKTCAGFPGSFGYYDIDAQTFADWGVDLLKFDGCYCDSLENLADGYKHMSLALNRTGRSIVYSCEWPLYMWPFQKPNYTEIRQYCNHWRNFADIDDSWKSIKSILDWTSFNQERIVDVAGPGGWNDPDMLVIGNFGLSWNQQVTQMALWAIMAAPLFMSNDLRHISPQAKALLQDKDVIAINQDPLGKQGYQLRQGDNFEVWERPLSGLAWAVAMINRQEIGGPRSYTIAVASLGKGVACNPACFITQLLPVKRKLGFYEWTSRLRSHINPTGTVLLQLENTMQMSLKDLL | 10.4 % WT | 1.2 | 56.2 ± 3.3 % WT | 45.7 ± 3.1 % WT | 13148 ± 985 nmol/mg/h | 16149 ± 1059 nmol/mg/h
5 | L106H (protein) MQLRNPELHLGCALALRFLALVSWDIPGARALDNGLARTPTMGWLHWERFMCNLDCQEEPDSCISEKLFMEMAELMVSEGWKDAGYEYLCIDDCWMAPQRDSEGRHQADPQRFPHGIRQLANYVHSKGLKLGIYADVGNKTCAGFPGSFGYYDIDAQTFADWGVDLLKFDGCYCDSLENLADGYKHMSLALNRTGRSIVYSCEWPLYMWPFQKPNYTEIRQYCNHWRNFADIDDSWKSIKSILDWTSFNQERIVDVAGPGGWNDPDMLVIGNFGLSWNQQVTQMALWAIMAAPLFMSNDLRHISPQAKALLQDKDVIAINQDPLGKQGYQLRQGDNFEVWERPLSGLAWAVAMINRQEIGGPRSYTIAVASLGKGVACNPACFITQLLPVKRKLGFYEWTSRLRSHINPTGTVLLQLENTMQMSLKDLL | 7.3 % WT | 3.5 | 10.2 ± 1.1 % WT | 3 ± 0.2 % WT | 856 ± 58 nmol/mg/h | 3009 ± 399 nmol/mg/h
6 | L106I (protein) MQLRNPELHLGCALALRFLALVSWDIPGARALDNGLARTPTMGWLHWERFMCNLDCQEEPDSCISEKLFMEMAELMVSEGWKDAGYEYLCIDDCWMAPQRDSEGRIQADPQRFPHGIRQLANYVHSKGLKLGIYADVGNKTCAGFPGSFGYYDIDAQTFADWGVDLLKFDGCYCDSLENLADGYKHMSLALNRTGRSIVYSCEWPLYMWPFQKPNYTEIRQYCNHWRNFADIDDSWKSIKSILDWTSFNQERIVDVAGPGGWNDPDMLVIGNFGLSWNQQVTQMALWAIMAAPLFMSNDLRHISPQAKALLQDKDVIAINQDPLGKQGYQLRQGDNFEVWERPLSGLAWAVAMINRQEIGGPRSYTIAVASLGKGVACNPACFITQLLPVKRKLGFYEWTSRLRSHINPTGTVLLQLENTMQMSLKDLL | 23.6 % WT | 1.5 | 70 ± 4.7 % WT | 46.4 ± 2.7 % WT | 13485 ± 1014 nmol/mg/h | 20120 ± 1416 nmol/mg/h
7 | Q107K (protein) MQLRNPELHLGCALALRFLALVSWDIPGARALDNGLARTPTMGWLHWERFMCNLDCQEEPDSCISEKLFMEMAELMVSEGWKDAGYEYLCIDDCWMAPQRDSEGRLKADPQRFPHGIRQLANYVHSKGLKLGIYADVGNKTCAGFPGSFGYYDIDAQTFADWGVDLLKFDGCYCDSLENLADGYKHMSLALNRTGRSIVYSCEWPLYMWPFQKPNYTEIRQYCNHWRNFADIDDSWKSIKSILDWTSFNQERIVDVAGPGGWNDPDMLVIGNFGLSWNQQVTQMALWAIMAAPLFMSNDLRHISPQAKALLQDKDVIAINQDPLGKQGYQLRQGDNFEVWERPLSGLAWAVAMINRQEIGGPRSYTIAVASLGKGVACNPACFITQLLPVKRKLGFYEWTSRLRSHINPTGTVLLQLENTMQMSLKDLL | 16.4 % WT | 1.4 | 54.6 ± 4.8 % WT | 38.2 ± 3.9 % WT | 14579 ± 2689 nmol/mg/h | 20402 ± 3399 nmol/mg/h
8 | L106P (protein) MQLRNPELHLGCALALRFLALVSWDIPGARALDNGLARTPTMGWLHWERFMCNLDCQEEPDSCISEKLFMEMAELMVSEGWKDAGYEYLCIDDCWMAPQRDSEGRPQADPQRFPHGIRQLANYVHSKGLKLGIYADVGNKTCAGFPGSFGYYDIDAQTFADWGVDLLKFDGCYCDSLENLADGYKHMSLALNRTGRSIVYSCEWPLYMWPFQKPNYTEIRQYCNHWRNFADIDDSWKSIKSILDWTSFNQERIVDVAGPGGWNDPDMLVIGNFGLSWNQQVTQMALWAIMAAPLFMSNDLRHISPQAKALLQDKDVIAINQDPLGKQGYQLRQGDNFEVWERPLSGLAWAVAMINRQEIGGPRSYTIAVASLGKGVACNPACFITQLLPVKRKLGFYEWTSRLRSHINPTGTVLLQLENTMQMSLKDLL | 25.8 % WT | 1.8 | 56.5 ± 3.9 % WT | 30.7 ± 2.7 % WT | 8835 ± 878 nmol/mg/h | 16075 ± 1039 nmol/mg/h
9 | R105T (protein) MQLRNPELHLGCALALRFLALVSWDIPGARALDNGLARTPTMGWLHWERFMCNLDCQEEPDSCISEKLFMEMAELMVSEGWKDAGYEYLCIDDCWMAPQRDSEGTLQADPQRFPHGIRQLANYVHSKGLKLGIYADVGNKTCAGFPGSFGYYDIDAQTFADWGVDLLKFDGCYCDSLENLADGYKHMSLALNRTGRSIVYSCEWPLYMWPFQKPNYTEIRQYCNHWRNFADIDDSWKSIKSILDWTSFNQERIVDVAGPGGWNDPDMLVIGNFGLSWNQQVTQMALWAIMAAPLFMSNDLRHISPQAKALLQDKDVIAINQDPLGKQGYQLRQGDNFEVWERPLSGLAWAVAMINRQEIGGPRSYTIAVASLGKGVACNPACFITQLLPVKRKLGFYEWTSRLRSHINPTGTVLLQLENTMQMSLKDLL | 15.6 % WT | 1.4 | 59.6 ± 3.9 % WT | 44 ± 2.2 % WT | 12553 ± 603 nmol/mg/h | 17062 ± 1134 nmol/mg/h
